Results: the DeepSol protein solubility set

experiment: soluble on expression in E. coli; label from the status in PepcDB or PDB records

Sequence | soluble on expression in E. coli
MPSAAPSSSVLLVQISDSHLFAEADGALLGMSTRDSLEKVVDLVLAEQPQVDLVVASGDISQDGSVESYEAFRRISTQIAAPARWFAGNHDELPQMEHVAQAEGLLEPIINIGRWRVTLLDSAVPGSVPGFLAAGQLQLLEQSLSEAPDRHHLVCLHHHPVAIGCEWMTPIGLRNADALFAVLDRFPQVRAVLWGHVHQEFDQMRNGVRLLASPSTCIQFAPGSADFKVDTTAPGYRWLRLHDDGRLETAVSRVVGMQFEVDYGGTGY | not soluble
MSLDTTGITPTSIRIGSTSPQSGPVSAYGVQARCQAAYFKMINDRGGIAGRKIDFIYYDDAFNPAKTVEQTRKLVESDEVALLFSNLGTATNSAIVKYANAKKIPHLFLSVNGDKWSDYKAHPWSIGFAPSARTEAAIFVKHMLAEKPDAKFAVLYQNDDFGKDFVLGAKDVLGERESRQLVTISHETSDPTIDSQILQLRAAAPDALISGTTAKFTAQAIRKVAETRWQVRHYITGGSSSYAGTIGPAGPENAVGVISSAYLKDVADPAWKDDQGIKDFLAFMQSYFPEGNKDDFYNLYAYTVASALVKVLTQCGDGWTRENIMAQATNLKDVELPTLLPGIRVNTSPTDYRPLTQVQLQKWDGKAWVRFGDVLGAEGHHHHHH | soluble
MGVISAYAVVHERAAIIDPGTAKGAEIILDEIDRSWNVEYICPTHIHIDHGGGAARLAKALDAKIIVHPRGVKHVVNPEKLWEASKAVLGEVAEIYGKPESIDESKVIAVEDEQEFDLGGERLKVFHAPGHAPHMLVYYLTNSKVLFPADAVGMCFGGVVFPLTPPPFDADAALKTLKRLKGLKVDYVAFTHYGVVEGDWPIAKLEHHHHHH | not soluble
EVEGDKTVPNNVANAPFAGTEPLAKKLGLTEVNSLNTAVAATSSFVQFNAIASHSTFASPSGTLADVNHHAEMQKENADFLMDNALSDVSDTTVLK | not soluble
MAEYEFMYIHSLAEHYLQYVLQVPAFESAPSQACRVLQRVAFSVQKEVEKNLKSYLDDFHVESIDTARIIFNQVMEKEFEDGIINWGRIVTIFAFGGVLLKKLPQEQIALDVGAYKQVSSFVAEFIINNTGEWIRRNGGWEDGFIKKFEPKSGWLTFLQMTGQIWEMLFLLK | not soluble
SNAMAKITVGTENQAPIEIYYEDHGTGKPVVLIHGWPLSGRSWEYQVPALVEAGYRVITYDRRGFGKSSQPWEGYEYDTFTSDLHQLLEQLELQNVTLVGFSMGGGEVARYISTYGTDRIEKVVFAGAVPPYLYKSEDHPEGALDDATIETFKSGVINDRLAFLDEFTKGFFAAGDRTDLVSESFRLYNWDIAAGASPKGTLDCITAFSKTDFRKDLEKFNIPTLIIHGDSDATVPFEYSGKLTHEAIPNSKVALIKGGPHGLNATHAKEFNEALLLFLKD | soluble
MGSDKIHHHHHHMKDKSNSPLIKELKLANLLSFGSETTDIQLNSLNVVVGPNGSGKSNLIDAISLLQASPSDLAVPIRKGGGIRDWLWRGMELPTASMEVITPSAPHGNKDLRYYLAFTALKQRFELIDECLETKEPYTNHSEPYFYYRYQNGNPVINNIKDQKRMLKREDIDPEQSILSQRKDPDQYPEITWLGKQFAAIRIYREWNFGRKALLRQPQGADAPNDYLAEDCSNLGLVLNKLRTNYKVKKKVLDLLSQFYEGIDDFDVIVEGGTVQLFLQEGEFMIPATRLSDGTLRFLCLLAILCNPDPPPLICIEEPELGIHSDIIPVIGQLLKDASKMTQLIVTTHSEILVDELTDMPEAVLVCEKHEGMTRFRRLEKDLLKDWLERYSLGELWRKGEIGGTRW | not soluble
MEFELEQHTPIIHFQARDAGATLRASEVKPKLDKFILTQIGKRFVKKTASTTEKNFIERGIEYFQNKDEEARRVYEEEKKKGNKGAKLELCLIPGQEGALNYKLSFKLSPDAKVQYFLPMSSNPKEIDKLKSLAQEKLGVQEVEMLPLTSYFANEDKAKSEPNIKHGDTPDQIKNKKRIFEENWQKVQLATFVNTPVEGVIRFQNAGLREEVNNLITNFFMLHNFGARQSKGFGSFIISLRDGKEEEDYFDTGCACYGYSFYIPAKTLEEALRKINYFYRSLRSGFNEYRGKNEIFYAKSGMHFYATKHNFEWDKKSIKGMLFDRDKDLEGKMKKEELFAFRDLLGLSSNERWQSYKTTITKECRNKKGEKFDRIKSPIQFKPICYSKYDYIVFFDLFPEKSGIPQLKGGKVVVKSSRHKGAVLELKIQEDIDLYNVFNEIFSELNFESQVGEYDSLTDAKEIFETMKDIYEQLNKNCHE | not soluble
GPGSMSTFETVKEEKLEFEKNCDQHIYEKALLTFKGVDGMDVYNCSAPFKYEGRTHIFGRVEKRLEWANSYVRLFVETNKDEFTLVPGNMVWQLEDPFVSNIDNEMFLGGTHIRKTNNRVFTYYCDFFRGTAENLSYFTTGPDNMKDIRLVKLANNKIGVFSRPKTAAHAFIGFTVINNVMELTPTVIEEAPPLNVIHTGAWGGVNQAYLLSSDKLGCISHYSYIDKDEDGNEITVYTNYSFVLNPYLREVEDARIIGTKGCYPKCSPKVHKLLDCAFSSGIVMREDGRCDLYSGLGDAHEGRITIDYPFEGHGTLIDNLHF | soluble
MRGFAQVWHGLREKKRAECTPLNAFLTYVTLPWNSILNDLLSERQKRPILTFEFDAPAHNHD | not soluble
MFNSKPLLTITLLAVSSVASAAEQALDAQQVAQLIEKADSYRLQDDSSKVVSLVRLYQDQELDKTRLYHVYTRPNRESLVVFKSAVEAGQKMLMMGDNYWLQMPKSRRPIRITPMQKLLGEASIGDISTLTWSQDYQGEWKATETLTINGQSIAAYRLALTAKTKGASYQKIDLWLSEQDAFPIKADLYLRSGKLAKQAQYGRATNLGKDYVSEMTLLDSIQPSKKTVIEYQEIVPWQLDNKFYNPSYLPKANTSEL | not soluble
MQSLSPTSRYLQALNEGTHQPDDVQKEAVDRLETLYQALTAKKSSATPPGGLIARLGKLLGKNEPDAQIPVRGLYMWGGVGRGKTWLMDLFYHSLPGERKLRLHFHRFMLRVHEELTALQGQIDPLDIIADRFKTETDVLCFDEFFVTDITDAMLLGGLMKALFARGITLVATSNIPPEELYRNGLQRARFLPAIDAIKQHCDIMNVDAGVDYRLRTLTQAHLWLTPLNDETRRQMDKLWLALAGAAREHAPTLEINHRPLSTLGVENQTLAVSFATLCVEARSQHDYIALSRLFHTVLLFDVPVMTPLMENEARRFIALVDEFYERHVKLVVSAAAPLYEIYQGERLKFEFQRCLSRLQEMQSAEYLKREHMPMAGDPLEHHHHHH | not soluble
MPVAPNPLLQANAIAKTSRSATVQADKPLQALGDKGDAFGQVMARQGRDKVTGQDDKVAQAKPKDKPDAAAGGKKDPAGKAAVADDGNKLPEEDSAQADTGVRDASLVAGQVTDAQPGAQLIQAQAEAVAPVLQAATAQTQVSAALPEEPSAEEAFDPDADPLANLPTLRLALEHSAQAKGGTSAHALDAAQAQGEEGQAAVNTLANLVEDTDGESAESGGKAFGALLEDGLKDTKSASSDTRIDDFANRLASLTQAATAKTANAVPATANPLHQPLPMNQNAWAEGLVNRVMYLSSQNLKSADIQLEPAELGRLDIRVNVAADQATQVTFISGHAGVRDALDSQVHRLRELFAQQGLAQPDVNVADQSRGQQQQQGQAQGSNLSGVAARRAEQGGAEAVDSARPLEQQVVVGDSAVDYYA | not soluble
MGSDKIHHHHHHMYKFNPQRIQIGISACLLGEKVRFDGGHKNSTYCNQEIKQFFDYVPICPEMAIGLGAPRKSIRLVRDGETILVQSGDGSLDVTDKLNEYSENKVEELDFLGGYLLCAKSPTCGMERVTEYKIGTNNGSKSGIGVFARKLMERYPLLPVEEEGRLHDMVLRENFFTRVYAYHDWHLMKHEGLTKHKLVKFHSRYKYLLMAHSPTWYRELGPIVANIEDLEQSATRYFEGFMTALKINATRKNHTSTLQHIQGYFKKHLSKEQKTELSEAIMKYREGLLPLLVPITLINHYLREFPTPYIEEQVYLNPHPEALKLRYAY | not soluble
GHWNQPWKCLVDHDGVFDNRMMGYATEELWFSEWENGGTPWENPAGYEQFNPVLHVDKWRVPMLVIHGQKDFRIPVEQGLAAFGALQRKGIESKLLYFHDENHWVLNPQNSIQWHDTVNAWLKKYIG | not soluble
MAHHHHHHMHYTGVGIEDVKVRFNEKMRLSASLQRRKSEEVEWSLFWEALNKGDGKMISEALSGASVSGATQQIGMAEACAVLLKGAGKEWHTRIVDDLPFSTVTRCSLLHAALAEKRPDVAAEMLSHARVTRSDLSSLWPLMAKCTWEEVLRMISACPKNAVPYNQALPFILKQGCSLQTLSEHLEHARVLGDADVVAPLLAYAVEMEDWPYVERCVGHLVDIGKITPSAREAFGHLCKLHGPKRVCHRLMEHHVELSSMTIEDLESLRF | not soluble
MEESLKVGIAGLGTVGSSVVRILREKANSLTCQCGRSIKVVAVSARDKSRNRGIDLSDVKWFDSPVEMASSDEIDVFVELIGGESDVVYAAVKKALETGHHVVTANKALLAQHGGRLAVSAEKKGVFLHFEAAVAGGIPIIKVMRESLVSNHISRIYGILNGTCNYILTRMFTEGLSFKECLEDAQRLGYAEVDPTFDIGGNDTAHKLALLTSLAFGTAVSLDDIYVEGISNISQIDIRAADELGYRIKLLGVALKTETGIEQRVHPTMVPTSSMIAQIHGVTNALSIQSDLLGELLLSGPGAGGTATASAVIGDLADIAKARPGFQYAPVLGRPALGLAPHKKARISHHAGGYFIRLNVHDRAGVFAAVAKHMAGNHISLESIVQRSFVESQSVKTIILITHETTEVNVQQALAAIEKDGHLVAKSQFIRIEPMVLEHHHHHH | not soluble
EKKYFEIHGVPSIIWGNPSSKLYIYIHGQCGNKEEAEAFANIAVPHECQVLSVDLPEHGERKREKNSFNPWHVVPELVSIMEYAKCHWNQISLYANSIGAWFSMLSFEKENLRECIFVSPILDMQQLISNMMLWANVSEEQLKHELIIPTSFGHTLSWEYLQYVKQHPITQWNVPTKILYGKHDELTEIGVVEKFVEKFNCNLTIIENGKHWFNTPQELNSLYEWLNTLVK | not soluble
QGHVGDHDSHEVMQRLDALLPTLRERAQETEDLRRIPDDSMKALQETGFFRLLQPEQWGGYQADPVLFYSAVRKIASACGSTGWVSSIIGVHNWHLALFSQQAQEDVWGNDTDVRISSSYAPMGAGQVVDGGYTVNGAWAWSSGCDHASWAVLGGPVIKDGRPVDFVSFLIPREDYRIDDVWNVVGLRGTGSNTVVVEDVFVPTHRVLSFKAMSNLTAPGLERNTAPVYKMPWGTIHPTTISAPIVGMAYGAYDAHVEHQGKRVRAAFAGEKAKDDPFAKVRIAEASSDIDAAWRQLSGNVADEYALLVAGEEVPFELRLRARRDQVRATGRAISSIDKLFESSGATALANGTPLQRFWRDAHAGRVHAANDPERAYVMYGTGEFGLPITDTMV | soluble
VARSSKLLGWCQRQTDGYAGVNVTDLTMSWKSGLALCAIIHRYRPDLIDFDSLDEQNVEKNNQLAFDIAEKELGISPIMTGKEMASVGEPDKLSMVMYLTQFYEMFKD | soluble
MTVIVGPKTKPPEAIKDASMARQKQMVNAHYDRLASAKERGEKVAATFVPGNLNELLMCFDMVNNLPEVNAIQNGLRRQSGGYVMEAEKLGHSEDVCTYVKSDIGMMAKGNIGPNGKPLPDPDVLLLSYTGCFTFMKWFELLRRQYKCETIMFQTPYLADGRITKDMISYMVKQLRQDVIPKLERISGVKFDIDRLREYLRKSAKAEDDHVWVLQSAKHKPSPIDAYFGGIYYIGPIFGAFRGTDDAIEYYKFLRAEVEQRIAQGKGPVTPDGDMGQERYRLVVEGPPNYTNFRQFWKMFYDEGAVVVASSYTKVGGTYDYGFRHDPDRPLESLAEYCLNVYTNRNLPMRVDMLENYINEYEADGLLINSIKSCNSFSAGQLLMMREVEKRTGKPAAFIETDLVDPRYFSAANVKNRLESYFQMIEQKRAGFRGAA | not soluble
